The term IC50 denotes the concentration that inhibits the measured activity by half. Higher therefore signals weaker potency in that assay. In general, koff refers to the first-order rate constant of dissociation. High values mean a short-lived complex, low ones a long-lived complex.

Drawing on publication PMC4197845 (International journal of cancer. Journal international du …, 2011), this text covers IC50 and koff for one molecule.

For test [1], the target named is EGFR extra-cellular domain (EGFR-ECD; a.a. 1-614) fused to a human IgG1 Fc. The test is described as follows: ELISA. (In general: In an ELISA, binding on a coated surface is turned into a signal by an enzyme label.)
Test [2] has as its target EGFR as used for SPR (BIAcore) (Homo sapiens, UniProt P00533). The test is described as follows: SPR.

B1: 38G7 nanobody (VHH)
VHH: EVQLVESGGGLVQAGGSLRLSCAASGRTFSSYVMGWFRQATGKEREFVATIAWDSGSTYYADSVKGRFTISRDNAKNTVHLQMNSLKPEDTAVYYCAASYNVYYNNYYYPISRDEYDYWGQGTQVTVSS
Consider B1, for which, in test [1], the 50% inhibitory concentration (IC50) was found to be 10 nM. Besides, the off-rate constant (koff) in test [2] stood at 0.0002 s⁻¹.
